Target: ALYREF-ΔRRM (human, UniProt Q86V81 1-257, del108-179)
Test: EMSA; 35 mM Tris-HCl pH 7.5, 1 mM DTT, 100 ug/ml BSA, 1 mM MgCl2, 100 mM KCl, 10 min at 30 C; 5 nM nucleic acid; gel at 4 C
Details: protein: recombinant; tags: His6; label: 32P; three-strand 5' RNA flap; RNA and DNA2 share the complement on DNA1

B1: 5' RNA-DNA flap (R-Flap, migratable R-loop mimic) (mixed)
DNA 1: ACGCTGCCGAATTCTACCAGTGCCTTGCTAGGACATCTTTGCCCACCTGGTGGTGGGACC
DNA 2: GGTCCCACCACCAGGTGGGCAAAGATGTCCCAGCAAGGCACTGGTAGAATTCGGCAGCGT
RNA: GGUCCCACCACCAGGUGGGCAAAGAUGUCC
binding result: binds

Source: paper PMC11665464, “The molecular chaperone ALYREF promotes R-loop resolution and maintains genome stability”
